Test results published in article PMC12248025 (bioRxiv, 2025).
“And” between values parts separate entries of the source, which are not always exact repeats. Equal values may be shown once.

Target: the molecule itself
Test: cryo-EM structure

B1: human IMPDH2 S160del (hIMPDH2-S160del) (enzyme)
chain: not shown
stoichiometry N: 4 and 8
